The values below come from patent publication US20080220450A1 (published 2008).

Assay in all cases: binding to purified HLA
The target of assay [1] is DRB1*0101 (DR1) (human, UniProt P01903 26-254).
In assay [2] the target is DQA1*0301/DQB1*0302 (DQ3.2).
For assay [3], the target named is DRB4*0101 (DRw53).
For assay [4], the target named is DRB3*0101 (DR52a).
Assay [5] addresses DRB1*0802 (DR8w2).
The target in assay [6] is DRB1*0404 (DR4w14).
The target in assay [7] is DRB1*0401 (DR4w4).
For assay [8], the target named is DQA1*0501/DQB1*0201 (DQ2).
The target of assay [9] is DQA1*0301/DQB1*0301 (DQ3.1).
For assay [10], the target named is DRB1*1501 (DR2w2β1) (human).
Assay [11] deals with DRB1*0405 (DR4w15).
Assay [12] addresses DRB1*0301 (DR3w17).
For assay [13], the target named is DRB1*0901 (DR9).
Assay [14] has as its target DRB1*0701 (DR7).
The target in assay [15] is HLA-DR6(13) (human).
Assay [16] has as its target DRB5*0101 (DR2w2β2).
Assay [17] has as its target DRB1*1201 (DR5w12).
The target of assay [18] is DRB1*1101 (DR5w11).

For the molecule GSISYPARYANAMAV [B. lentus 157], the half-inhibitory concentration (IC50) in assay [1] is 1.06 µM; in assay [2], 5.01 µM; in [3] it was more than 9.67 µM; in assay [4], more than 9.43 µM; in assay [5], more than 16.3 µM; in assay [6] it was 7.58 µM. The IC50 turned out to be 4.79 µM in assay [7]; 6.16 µM in assay [8]; 6.01 µM in assay [9]; 0.865 µM in assay [10]; 6.78 µM in [11]; 16.4 µM in assay [12]. In addition, the 50% inhibitory concentration (IC50) in [13] was 1.48 µM; in assay [14], 0.724 µM.
In assay [15], SYPARYANAMAVGAT [B. lentus subtilisin epitope peptide, amino acids 160-174] displayed an IC50 of 0.559 µM.
Regarding GSISYPARYANAMAV [B. lentus subtilisin epitope peptide, amino acids 157-171], the IC50 in [15] was determined as 2.01 µM.
Regarding GTVAALNNSIGVLGV [BPN' Y217L .70], the IC50 in [1] is 0.0065 µM; in assay [2], 2.07 µM; in assay [16], 15.7 µM; in assay [3], 0.031 µM; in assay [17], 0.08 µM; in assay [4], 2.01 µM. Moreover, the half-inhibitory concentration (IC50) in assay [5] came to 1.71 µM; in [6], 0.0057 µM; in [7], 0.033 µM; in assay [8], 0.67 µM; in assay [9] it was 0.44 µM; in assay [10] it was 0.021 µM. Also, the IC50 was 0.166 µM in assay [11]; 8.74 µM in assay [12]; 0.046 µM in [13]; 0.154 µM in assay [14]; 2.38 µM in assay [18].
As to SYPARYANAMAVGAT [B. lentus .160], the IC50 in [1] was 0.013 µM; in assay [2], 1.05 µM; in assay [16] it was 1.73 µM; in assay [3] it was 8.26 µM; in assay [4] it was 6.16 µM; in assay [5] it was 2.03 µM. The IC50 in assay [6] came to 5.54 µM; in assay [7], 0.142 µM; in assay [8], 1.3 µM; in assay [9], 0.063 µM; in assay [11], 1.35 µM; in [13] it was 0.164 µM. Besides, the IC50 in [14] is 0.138 µM; in assay [18] it was 5.55 µM.
With NGIEWAIANNMDVIN [B. amyloliquifaciens subtilisin BPN' Y217L epitope peptide, amino acids 109-123], the IC50 in [15] was found to be 0.0098 µM.
In the case of NGIEWAIANNMDVIN [BPN' Y217L .109], the IC50 in assay [1] stood at 0.0088 µM; in assay [2], 0.08 µM; in [16], 1.02 µM; in [3] it was 1.07 µM; in assay [17], 1.24 µM; in [4] it was 0.119 µM. Moreover, the IC50 came out at 2.19 µM in assay [5]; 0.166 µM in assay [6]; 0.03 µM in assay [7]; 0.097 µM in [8]; 2.18 µM in [9]; 0.683 µM in assay [10]. The concentration for half-maximal inhibition (IC50) in assay [11] was 0.037 µM; in assay [13] it was 0.043 µM; in assay [14], 0.058 µM; in assay [18] it was 3.02 µM.
